The target in test [1] is E.Coli-expressed FLNC (aa 1438-2128) (Homo sapiens (Human)) (UniProt Q14315). Briefly: ELISA, negative control. (In general: ELISA stands for enzyme-linked immunosorbent assay.)
For test [2], the target named is E.Coli-expressed partial FLNA (aa 1443-2131) (human) (UniProt P21333). In words: ELISA, negative control.
Test [3] addresses HEK293-expressed full length FLNB (Homo sapiens (Human)) (UniProt O75369). Briefly: ELISA, negative control.
Test [4] deals with T1, HEK293-expressed full length FLNA (UniProt: P21333) (human, UniProt P21333 2-2647).
T1 construct: Full length protein; also called full length human FLNA protein; Full length filamin A
T1 sequence (P21333 other isoform, or with tags, fused parts or gaps limits assumed): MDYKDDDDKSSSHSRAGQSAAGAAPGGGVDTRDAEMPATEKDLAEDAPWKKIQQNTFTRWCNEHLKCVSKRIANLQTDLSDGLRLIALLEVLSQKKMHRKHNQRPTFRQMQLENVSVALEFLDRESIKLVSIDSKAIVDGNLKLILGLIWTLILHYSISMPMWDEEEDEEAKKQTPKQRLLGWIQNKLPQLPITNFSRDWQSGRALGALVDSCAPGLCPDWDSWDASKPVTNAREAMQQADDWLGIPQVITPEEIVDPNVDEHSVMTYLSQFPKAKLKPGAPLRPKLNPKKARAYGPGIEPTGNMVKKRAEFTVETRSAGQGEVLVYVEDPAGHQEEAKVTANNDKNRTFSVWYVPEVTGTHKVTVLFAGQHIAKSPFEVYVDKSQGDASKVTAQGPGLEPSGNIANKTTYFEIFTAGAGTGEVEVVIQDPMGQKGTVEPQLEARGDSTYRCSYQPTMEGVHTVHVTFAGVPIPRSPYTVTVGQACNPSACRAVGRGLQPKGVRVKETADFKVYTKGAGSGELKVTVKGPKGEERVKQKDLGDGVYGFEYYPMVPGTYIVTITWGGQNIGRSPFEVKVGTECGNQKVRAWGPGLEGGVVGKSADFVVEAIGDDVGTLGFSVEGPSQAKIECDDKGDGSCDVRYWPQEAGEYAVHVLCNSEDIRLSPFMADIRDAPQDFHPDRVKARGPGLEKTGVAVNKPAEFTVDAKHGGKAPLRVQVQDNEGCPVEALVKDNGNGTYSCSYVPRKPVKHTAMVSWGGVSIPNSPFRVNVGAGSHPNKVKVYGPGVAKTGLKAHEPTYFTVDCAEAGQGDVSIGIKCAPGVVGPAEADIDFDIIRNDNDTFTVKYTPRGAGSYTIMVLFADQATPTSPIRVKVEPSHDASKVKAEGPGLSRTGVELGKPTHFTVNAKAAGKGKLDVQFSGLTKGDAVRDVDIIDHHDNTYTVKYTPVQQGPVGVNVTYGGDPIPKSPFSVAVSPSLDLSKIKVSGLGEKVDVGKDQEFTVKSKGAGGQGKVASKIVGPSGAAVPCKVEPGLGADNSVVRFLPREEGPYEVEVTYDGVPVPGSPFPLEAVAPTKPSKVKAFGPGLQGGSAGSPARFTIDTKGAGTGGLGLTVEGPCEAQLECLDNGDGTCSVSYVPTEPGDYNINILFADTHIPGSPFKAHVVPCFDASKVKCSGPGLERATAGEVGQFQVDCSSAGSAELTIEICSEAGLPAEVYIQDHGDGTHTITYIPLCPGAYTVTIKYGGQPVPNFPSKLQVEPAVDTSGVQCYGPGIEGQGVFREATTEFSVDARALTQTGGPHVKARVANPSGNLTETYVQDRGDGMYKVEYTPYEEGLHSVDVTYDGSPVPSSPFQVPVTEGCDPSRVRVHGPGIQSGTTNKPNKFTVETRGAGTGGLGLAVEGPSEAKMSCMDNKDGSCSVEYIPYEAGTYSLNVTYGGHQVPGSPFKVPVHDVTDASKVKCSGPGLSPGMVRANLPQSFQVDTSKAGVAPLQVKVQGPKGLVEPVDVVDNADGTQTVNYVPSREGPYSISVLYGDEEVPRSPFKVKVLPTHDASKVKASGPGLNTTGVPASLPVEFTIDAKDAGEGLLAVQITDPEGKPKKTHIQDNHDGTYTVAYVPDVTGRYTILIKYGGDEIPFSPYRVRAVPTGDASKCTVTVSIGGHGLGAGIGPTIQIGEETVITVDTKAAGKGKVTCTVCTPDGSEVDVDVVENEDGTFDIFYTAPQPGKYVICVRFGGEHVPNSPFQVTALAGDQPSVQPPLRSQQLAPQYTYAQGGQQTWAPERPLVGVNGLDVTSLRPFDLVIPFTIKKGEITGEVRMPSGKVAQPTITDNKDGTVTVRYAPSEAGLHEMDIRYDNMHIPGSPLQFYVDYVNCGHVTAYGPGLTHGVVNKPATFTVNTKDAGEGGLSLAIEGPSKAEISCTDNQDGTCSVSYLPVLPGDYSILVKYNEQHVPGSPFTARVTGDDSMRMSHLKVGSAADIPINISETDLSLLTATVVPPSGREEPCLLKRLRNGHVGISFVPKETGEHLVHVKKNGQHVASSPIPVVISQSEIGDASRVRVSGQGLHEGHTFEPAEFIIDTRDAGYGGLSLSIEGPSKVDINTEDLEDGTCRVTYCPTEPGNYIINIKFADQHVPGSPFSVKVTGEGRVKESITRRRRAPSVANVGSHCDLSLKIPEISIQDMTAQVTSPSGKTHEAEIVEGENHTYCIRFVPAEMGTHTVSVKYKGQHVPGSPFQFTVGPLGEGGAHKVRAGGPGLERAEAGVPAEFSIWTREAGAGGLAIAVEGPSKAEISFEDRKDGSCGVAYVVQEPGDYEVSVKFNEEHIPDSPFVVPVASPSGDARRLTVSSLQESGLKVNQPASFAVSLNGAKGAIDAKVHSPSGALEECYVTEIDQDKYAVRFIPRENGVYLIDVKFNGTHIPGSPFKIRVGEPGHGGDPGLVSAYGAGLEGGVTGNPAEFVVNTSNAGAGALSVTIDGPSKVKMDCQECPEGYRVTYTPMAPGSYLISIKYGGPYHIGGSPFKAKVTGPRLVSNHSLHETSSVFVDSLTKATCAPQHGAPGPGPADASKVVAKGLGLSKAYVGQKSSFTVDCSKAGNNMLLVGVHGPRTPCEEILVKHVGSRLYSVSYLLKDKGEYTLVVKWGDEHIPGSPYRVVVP
Briefly: ELISA, negative control.

In test [5] the target is E.Coli-expressed partial FLNB (aa 1416-2089) (Homo sapiens (Human)) (UniProt O75369). Briefly: ELISA, negative control.
Chain of E.Coli-expressed partial FLNB (aa 1416-2089) (Homo sapiens (Human)) (O75369 1416-2089, tags left off): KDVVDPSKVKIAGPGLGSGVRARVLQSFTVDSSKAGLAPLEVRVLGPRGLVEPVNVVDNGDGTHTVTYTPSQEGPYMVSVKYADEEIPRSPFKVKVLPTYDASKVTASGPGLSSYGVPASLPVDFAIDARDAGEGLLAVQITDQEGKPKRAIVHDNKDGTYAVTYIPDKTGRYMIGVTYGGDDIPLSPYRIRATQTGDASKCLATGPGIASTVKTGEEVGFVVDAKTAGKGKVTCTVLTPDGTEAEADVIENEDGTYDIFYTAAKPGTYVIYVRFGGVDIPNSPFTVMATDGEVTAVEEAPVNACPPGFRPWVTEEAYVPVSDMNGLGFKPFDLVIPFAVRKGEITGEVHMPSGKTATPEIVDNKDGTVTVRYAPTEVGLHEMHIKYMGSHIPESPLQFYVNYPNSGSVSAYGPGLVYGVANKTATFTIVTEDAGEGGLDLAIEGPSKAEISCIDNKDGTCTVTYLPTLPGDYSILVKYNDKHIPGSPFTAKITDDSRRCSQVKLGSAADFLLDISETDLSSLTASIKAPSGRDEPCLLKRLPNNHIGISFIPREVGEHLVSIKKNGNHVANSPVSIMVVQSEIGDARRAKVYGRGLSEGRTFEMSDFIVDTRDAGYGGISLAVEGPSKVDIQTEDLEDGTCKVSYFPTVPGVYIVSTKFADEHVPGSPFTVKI
The target in test [6] is E.Coli-expressed FLNC (aa 1438-2128) (Homo sapiens (Human)) (UniProt Q14315). Briefly: ELISA, positive control.
In test [7] the target is E.Coli-expressed partial FLNA (aa 1443-2131) (human) (UniProt P21333). In words: ELISA, positive control.
The target of test [8] is T1, HEK293-expressed full length FLNA …. In words: ELISA, positive control.
The target of test [9] is T2, E.Coli-expressed partial FLNA (aa 1443-2131) (human, UniProt P21333 1443-2131).
T2 construct: also called FLNA Partial; partial FLNA protein
T2 sequence: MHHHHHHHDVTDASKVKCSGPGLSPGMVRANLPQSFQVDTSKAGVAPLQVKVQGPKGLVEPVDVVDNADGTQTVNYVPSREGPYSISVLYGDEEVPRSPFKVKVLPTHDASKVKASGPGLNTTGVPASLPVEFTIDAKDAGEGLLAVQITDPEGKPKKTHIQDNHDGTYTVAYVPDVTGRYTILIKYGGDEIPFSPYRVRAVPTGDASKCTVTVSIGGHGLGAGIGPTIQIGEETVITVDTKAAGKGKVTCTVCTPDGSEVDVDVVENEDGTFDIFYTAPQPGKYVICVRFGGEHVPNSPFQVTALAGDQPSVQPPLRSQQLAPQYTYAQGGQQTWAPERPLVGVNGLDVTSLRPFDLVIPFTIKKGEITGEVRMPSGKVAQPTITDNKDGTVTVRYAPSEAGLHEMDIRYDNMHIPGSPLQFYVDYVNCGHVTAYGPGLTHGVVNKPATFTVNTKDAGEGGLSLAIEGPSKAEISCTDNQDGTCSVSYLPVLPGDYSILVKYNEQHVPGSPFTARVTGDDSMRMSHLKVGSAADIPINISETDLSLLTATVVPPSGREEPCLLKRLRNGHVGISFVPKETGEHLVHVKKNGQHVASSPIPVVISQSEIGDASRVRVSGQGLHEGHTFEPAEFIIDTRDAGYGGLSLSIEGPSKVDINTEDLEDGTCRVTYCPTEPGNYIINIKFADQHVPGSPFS
Briefly: BLI (Octet), antibody on AMC anti-mIgG Fc capture sensor, FLNA Partial at 100 nM. The protocol:
Kinetics studies with ForteBio Bio-Layer Interferometry (BLI) technology were carried out. BLI is a label-free technology for measuring biomolecular interactions. It is an optical analytical technique that analyzes the interference pattern of white light reflected from two surfaces: a layer of immobilized protein on the biosensor tip, and an internal reference layer. Any change in the number of molecules bound to the biosensor tip causes a shift in the interference pattern that can be measured in real-time. The Octet analysis results are shown as below in Table 3.

Test [10] concerns the target T3, E.Coli-expressed FLNC (aa 1438-2128) (Homo sapiens (Human), UniProt Q14315 1438-2128).
T3 construct: also called Partial filamin C
T3 sequence: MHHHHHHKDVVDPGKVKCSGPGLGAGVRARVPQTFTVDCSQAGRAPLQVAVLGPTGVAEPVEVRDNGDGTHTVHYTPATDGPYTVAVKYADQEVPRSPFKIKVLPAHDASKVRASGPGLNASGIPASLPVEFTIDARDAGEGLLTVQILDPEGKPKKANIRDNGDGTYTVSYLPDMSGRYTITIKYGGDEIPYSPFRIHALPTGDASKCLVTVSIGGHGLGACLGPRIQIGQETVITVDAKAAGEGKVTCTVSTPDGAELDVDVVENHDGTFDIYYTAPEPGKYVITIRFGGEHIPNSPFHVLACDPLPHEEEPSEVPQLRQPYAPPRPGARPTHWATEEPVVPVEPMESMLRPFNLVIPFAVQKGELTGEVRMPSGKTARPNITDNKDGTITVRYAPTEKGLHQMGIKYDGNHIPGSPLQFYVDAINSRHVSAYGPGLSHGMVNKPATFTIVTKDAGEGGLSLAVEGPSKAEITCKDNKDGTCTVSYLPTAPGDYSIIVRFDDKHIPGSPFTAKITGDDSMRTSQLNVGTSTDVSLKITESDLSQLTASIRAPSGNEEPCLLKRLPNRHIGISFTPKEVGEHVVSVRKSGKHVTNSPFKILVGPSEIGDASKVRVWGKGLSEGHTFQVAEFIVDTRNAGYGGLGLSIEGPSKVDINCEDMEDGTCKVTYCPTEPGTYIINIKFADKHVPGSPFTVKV
In words: ELISA, hybridoma supernatant on protein. The protocol: (§1) Next, supernatants from clone 2C12, 3F4, and 6E3 were tested to bind the above proteins by ELISA. FLNA proteins were tested for specificity, while homologous proteins FLNB and FLNC from the same family were tested for cross-reactivity. 10% pooled normal human serum was also included for any unexpected non-specific binding.

The target of test [11] is T2, E.Coli-expressed partial FLNA (aa …). Briefly: ELISA, hybridoma supernatant on protein. The protocol: as §1
The target of test [12] is T1, HEK293-expressed full length FLNA …. Briefly: ELISA, hybridoma supernatant on protein. The protocol: as §1

For the molecule “Neg ctl (negative control of the ELISA of Table 2)”, the ELISA test result (signal) is 0.042 in [1]; 0.072 in test [2]; 0.072 in test [3]; 0.043 in test [4]; 0.069 in test [5].

With “Pos ctl (positive control of the ELISA of Table 2)”, the ELISA test result (signal) in [6] came out at 1.7; in test [7], 3.85; in [8], 3.09.

B1: anti-FLNA murine monoclonal antibody 6E3 (antibody, IgG1, V domains shown)
VH: QVQLQQSGAELMKPGASVKLSCKATGYTFTGYWIEWVKQRPGHGLEWIGEILPGNGSTNCNEKFKGKATFTATTSSNTAYMQLSSLTTEDSAIYYCTTVSYWGQGTTLTVSS
VL: DVVMTQTPLSLPVSLGDQASISCRSSQSLVHSNGNTYLHWYLQKPGQSPNLLIYKVSNRFSGVPDRFTGSGSGTDFTLKISRVEAEDLGVYFCSQSTHVPFTFGSGTKLEIK
notes: also called clone 6E3; mab 6E3
As usually defined, the Kd is a measure of binding affinity in units of concentration. A lower Kd goes with tighter binding. One may read the koff as the first-order rate constant of dissociation. A low value points to slow dissociation. By kon is commonly meant the rate constant with which the complex forms. A higher kon goes with fast association. On to B1, for which, in [9], the Kd was 4.02 nM, the Response turned out to be 0.33, the koff was 0.000784 s⁻¹ and the on-rate constant (kon) is 195000 M⁻¹ s⁻¹. In addition, the “ELISA test result (signal)” value in [10] is 0.041. For the same molecule, the “ELISA test result (signal)” value in test [11] was found to be 2.57. Besides, the “ELISA test result (signal)” value in [12] came out at 2.2.

B2: anti-FLNA murine monoclonal antibody 2C12 (antibody, IgG1, V domains shown)
VH: QVQLKQSGPGLVQPSQSLSITCTVSGFSLTNYGVHWVRQSPGKGLEWLGVIWRGGSTDYNAAFMSRLSITKDNSKSQVFFKMNSLQADDTAIYFCALRGNYVHYYLMDYWGQGTSVTVSS
VL: DIQVTQTPSSLSASLGDRVTISCRASQDISNYLNWYQQKPDGTVKLLIYYTSRLHSGVPSRFSGSGSGTDYSLTISNLDQEDIATYFCQQGNTLPPTFGGGTNLEIK
notes: also called clone 2C12
In test [9], B2 returned a Kd of 4.82 nM, a Response of 0.222, a dissociation rate constant (koff) of 0.000381 s⁻¹ and a kon of 79000 M⁻¹ s⁻¹. In addition, the “ELISA test result (signal)” value in [10] was determined as 0.044. The “ELISA test result (signal)” value in test [11] was determined as 3.32. Also, the “ELISA test result (signal)” value in [12] came to 1.87.

B3: anti-FLNA murine monoclonal antibody 3F4 (antibody, IgG2b, V domains shown)
VH: EVQLQESGPGLAKPSQTLSLTCSVTGYSITSNYWNWIRKFPGNKLEYMGYISFSGSTYYNPSLKSRISITRDTSKNQYYLQLNSVTTEDTATYYCARWNYYAMDYWGQGTSVTVSS
VL: DFLLTQSPAILSVSPGERVSFSCRASQSIGTNIHWYQQRTNGSPRLLIKFASESISGIPSRFSGSGSGTDFTLTINSVESEDIADYYCQQSNSWPYTFGGGTKLEIK
notes: also called clone 3F4
As to B3, in [9], the Kd amounted to 0.999 nM, the Response came to 0.283, the dissociation rate constant (koff) was found to be 0.000804 s⁻¹ and the kon was found to be 805000 M⁻¹ s⁻¹. Also, the “ELISA test result (signal)” value in test [10] stood at 0.042. In addition, the “ELISA test result (signal)” value in test [11] was 3.04. The “ELISA test result (signal)” value in test [12] was determined as 2.35.

For the origin of these results see patent US20180171002A1 (BERG, published 2018).
